The supplement of paper PMC9170038

Tested on: MS2 coat protein
Experiment: apparent KD of MS2 coat protein; designed switch direction (-1 OFF switch, 1 ON switch): 1; higher = weaker reporter binding
Summary of the method: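 Transcription of designed RNA switches on Illumina chips was done by stalled E. coli RNA polymerase. SNAP-549-labelled MS2 coat protein was then titrated in doubling steps from 0.7 or 1.5 nM to 3 µM, with steps of 0.8–1.5 h at the lowest and 10–20 min at the highest concentration. The per-design median over clusters of curve-fitted normalised fluorescence is reported as apparent KD.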

[1] = input ligand: microRNA oligo, concentration not stated
[2] = Eterna round: R95, input ligand: FMN 200 uM
[3] = Eterna round: R95, input ligand: microRNA oligo, concentration not stated
[4] = Eterna round: R95, input ligand: none

| Sequence | apparent KD of MS2 coat protein (input ligand: FMN 200 uM) [µM] | apparent KD of MS2 coat protein [1] [µM] | apparent KD of MS2 coat protein (input ligand: none) [µM] | apparent KD of MS2 coat protein [2] [µM] | apparent KD of MS2 coat protein [3] [µM] | apparent KD of MS2 coat protein [4] [µM] |
| --- | --- | --- | --- | --- | --- | --- |
| AGAAAACAUGAGGAUCACCCAUGUAGAAAUAUGGGAGGAUAUACAAAGACGAAAGUCAAGGUAGAAGGCCUAAAGA [Mat - Same State 1 - Meechl mod - D124] (Eterna round: R96, puzzle: Same State 1) | 0.0196 | 0.0704 | 0.0987 | – | – | – |
| AGAAGACAUGAGGAUCACCCAUGUAUGAAAAGUACAGGAUAUCAUGAGCUAAGGUGCGCAUGAGAAGGGUGAAAAU [Aatle] (puzzle: Same State 1) | – | – | – | 0.549 | 0.166 | 0.0703 |
| AGACAUGAGGAUCACCCAUGUAUACACUAUAUCAGUGUAACAUAGGAUAUCCACCGCCAUGCUGUGGAGAAGGAUGAAACGGGC [Raerlaan] (Eterna round: R96, puzzle: Same State NG 3) | 0.211 | 0.0659 | 0.108 | – | – | – |
| AGAGAACAUGAGGAUCACCCAUGUAAGAGAAGUGUAGGAUAUGUGAGGAGCAGAGGAGGAACAGAAGGACAUGGAG [JR_SS!_Sub072] (puzzle: Same State 1) | – | – | – | 0.0346 | 0.0353 | 0.0538 |
| AGAGCCGGCACUGAGGAUAUUCAUAUUAAAACAUGAGGAUCACCCAUGUAGGCCAGAAGGCCUUGGGAGAAGGCAGGUCGGCUCU [Mat - Same State 2 - Mod of UCT - D61] (Eterna round: R96, puzzle: Same State 2) | 0.0187 | 0.201 | 0.366 | – | – | – |
| AGAGCCGGCACUGAGGAUAUUCAUAUUAAAACAUGAGGAUCACCCAUGUAGGCCAGAAGGCCUUGGGAGAAGGCAGGUCGGCUCU [Mat - Same State 2 - Mod of UCT - D61] (puzzle: Same State 2) | – | – | – | 0.0223 | 0.211 | 0.507 |
| AGAUCAUGACGAGGAUAUGGUACAUGAGGAUCACCCAUGUAUGUACCAUAACGCGUACGACGAAACCAGAAGGCGUCGUGGUCA [JL SSNG2 1.08] (Eterna round: R96, puzzle: Same State NG 2) | 0.0117 | 0.0148 | 0.027 | – | – | – |
| AGAUGUUAAUUAGGAUAUGGACACAUGAGGAUCACCCAUGUAACGAAGAUACGAUGUGGUCAAGUCUAGAAGGGAUAGCUAACA [SameState NG2 #75] (Eterna round: R96, puzzle: Same State NG 2) | 0.0399 | 0.0273 | 0.039 | – | – | – |
| AGAUGUUAAUUAGGAUAUGGGCACAUGAGGAUCACCCAUGUAUUUUCGAUGCUAUGUGGAGACGUCUAGAAGGGAUGGCUAACA [SameState NG2 #87] (Eterna round: R96, puzzle: Same State NG 2) | 0.198 | 0.137 | 0.142 | – | – | – |
| AGCACGGGAUUGGAGGAUAUGUUGUUUGCAACAUGAGGAUCACCCAUGUCUGAGGCUGAAAAGCAGCAGAAGGCCGAUACAACCA [SS2-1.2] (Eterna round: R96, puzzle: Same State 2) | 0.0601 | 0.154 | 0.198 | – | – | – |
| AGCGAACAUGAGGAUCACCCAUGUAGACCGCGUGUGAUAACACAGGAUAUCAAAGGAAGAAGGAGUGAGAAGGGUGGGAAGGAG [Default title] (Eterna round: R96, puzzle: Same State NG 3) | 0.0936 | 0.0537 | 0.0751 | – | – | – |
| AGCUAGUACCGAGGAUAUACAUACAUGAGGAUCACCCAUGUAUACAUGAAUAAAUGAGACUACAUGUAGAAGGCGGUACUAGCA [Mat - Same State NG 2 - JL mod - D47] (Eterna round: R96, puzzle: Same State NG 2) | – | 0.0488 | – | – | – | – |
| AGCUAGUACCGAGGAUAUACAUACAUGAGGAUCACCCAUGUAUACAUGAAUAUAUGAGACUACAUGUAGAAGGCGGUACUAGCA [Mat - Same State NG 2 - JL mod - D46] (Eterna round: R96, puzzle: Same State NG 2) | 0.0162 | 0.042 | 0.0605 | – | – | – |
| AGCUAGUACCGAGGAUAUACGUACAUGAGGAUCACCCAUGUAUACAUGAUUUAAUGAGACUACAUGUAGAAGGCGGUACUAGCA [JL SSNG2 1.24] (Eterna round: R96, puzzle: Same State NG 2) | 0.0124 | 0.039 | 0.0537 | – | – | – |
| AGCUAGUACCGAGGAUAUACUUACAUGAGGACUACCCAUGUAUACAUGGUUCAAUAGGACUACAUGUAGAAGGCGGUACUAGCA [jandersonlee JLSSNG2 1.24 1FMN F5CU+F7U.1] (Eterna round: R96, puzzle: Same State NG 2) | 0.595 | 0.0261 | 0.0756 | – | – | – |
